The supplement of paper PMC10065799, “High-throughput profiling of sequence recognition by tyrosine kinases and SH2 domains using bacterial peptide display” (eLife, 2023)

Experiments:
AncSZ = assay: phosphorylation enrichment, bacterial display (enrichment ratio); higher = better substrate or ligand; peptides without Tyr show the background
EPHB1 = EPHB1 (UniProt P54762); assay: as above
EPHB2 = EPHB2 (UniProt P29323); assay: as above
FGFR1 = FGFR1 (UniProt P11362); assay: as above
FGFR3 = FGFR3 (UniProt P22607); assay: as above
Chain of FGFR3 (P22607 whole entry, looked up): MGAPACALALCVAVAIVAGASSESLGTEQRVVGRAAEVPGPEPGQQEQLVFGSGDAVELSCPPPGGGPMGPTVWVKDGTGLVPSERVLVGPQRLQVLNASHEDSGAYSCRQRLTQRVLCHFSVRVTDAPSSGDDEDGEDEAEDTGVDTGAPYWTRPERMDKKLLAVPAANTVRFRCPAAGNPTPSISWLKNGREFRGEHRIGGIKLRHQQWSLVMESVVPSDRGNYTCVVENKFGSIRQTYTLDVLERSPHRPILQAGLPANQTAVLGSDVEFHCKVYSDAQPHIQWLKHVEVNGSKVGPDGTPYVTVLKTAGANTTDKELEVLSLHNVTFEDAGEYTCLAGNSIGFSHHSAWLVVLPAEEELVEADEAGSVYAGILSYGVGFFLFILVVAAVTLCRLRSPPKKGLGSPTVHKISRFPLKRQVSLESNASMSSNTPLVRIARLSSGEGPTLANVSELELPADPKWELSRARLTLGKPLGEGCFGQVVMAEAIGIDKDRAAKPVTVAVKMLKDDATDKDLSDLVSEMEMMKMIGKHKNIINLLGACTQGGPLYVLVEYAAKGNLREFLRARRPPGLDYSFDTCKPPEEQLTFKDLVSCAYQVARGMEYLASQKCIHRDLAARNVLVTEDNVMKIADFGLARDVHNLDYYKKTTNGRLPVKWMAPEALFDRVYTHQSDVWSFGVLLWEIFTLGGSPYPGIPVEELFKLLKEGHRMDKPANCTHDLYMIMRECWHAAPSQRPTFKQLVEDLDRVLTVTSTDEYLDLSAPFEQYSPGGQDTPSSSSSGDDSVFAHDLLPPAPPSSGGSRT

Fer (mouse) = assay: as above
Fes = Fes (UniProt P07332); assay: as above
Fyn = Fyn (UniProt P06241); assay: as above
Hck = Hck (UniProt P08631); assay: as above
Jak2 = Jak2 (UniProt O60674); assay: as above
Chain of Jak2 (O60674 whole entry, looked up): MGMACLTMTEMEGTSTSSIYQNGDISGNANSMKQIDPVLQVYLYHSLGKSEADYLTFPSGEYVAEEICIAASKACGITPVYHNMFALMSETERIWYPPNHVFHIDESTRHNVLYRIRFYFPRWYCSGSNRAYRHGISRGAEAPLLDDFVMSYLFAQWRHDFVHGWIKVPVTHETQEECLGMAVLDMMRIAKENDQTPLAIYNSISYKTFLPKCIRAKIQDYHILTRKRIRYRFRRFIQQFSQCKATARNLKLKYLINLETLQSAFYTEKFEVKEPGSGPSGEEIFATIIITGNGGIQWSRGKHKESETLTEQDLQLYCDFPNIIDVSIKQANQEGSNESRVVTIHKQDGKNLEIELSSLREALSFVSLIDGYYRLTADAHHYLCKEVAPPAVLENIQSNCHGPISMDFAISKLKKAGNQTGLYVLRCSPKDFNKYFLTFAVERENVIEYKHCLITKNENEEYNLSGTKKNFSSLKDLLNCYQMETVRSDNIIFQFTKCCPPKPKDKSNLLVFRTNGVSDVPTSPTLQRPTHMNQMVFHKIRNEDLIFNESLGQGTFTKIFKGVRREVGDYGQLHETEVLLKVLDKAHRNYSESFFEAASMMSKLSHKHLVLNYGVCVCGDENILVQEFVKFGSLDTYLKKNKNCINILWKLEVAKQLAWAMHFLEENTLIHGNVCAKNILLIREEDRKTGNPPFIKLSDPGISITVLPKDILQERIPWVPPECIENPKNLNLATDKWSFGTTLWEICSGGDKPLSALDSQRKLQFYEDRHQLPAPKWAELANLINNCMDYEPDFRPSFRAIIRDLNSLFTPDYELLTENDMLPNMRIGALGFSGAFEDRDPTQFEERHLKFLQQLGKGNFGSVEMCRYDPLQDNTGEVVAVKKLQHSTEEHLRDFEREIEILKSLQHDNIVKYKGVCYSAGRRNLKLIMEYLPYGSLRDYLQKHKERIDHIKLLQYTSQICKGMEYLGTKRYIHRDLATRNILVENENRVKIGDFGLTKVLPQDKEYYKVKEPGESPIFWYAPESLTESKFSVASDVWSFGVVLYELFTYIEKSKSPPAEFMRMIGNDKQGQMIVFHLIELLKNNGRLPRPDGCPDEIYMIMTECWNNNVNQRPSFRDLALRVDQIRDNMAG

MERTK = MERTK (UniProt Q12866); assay: as above
Chain of MERTK (Q12866 whole entry, looked up): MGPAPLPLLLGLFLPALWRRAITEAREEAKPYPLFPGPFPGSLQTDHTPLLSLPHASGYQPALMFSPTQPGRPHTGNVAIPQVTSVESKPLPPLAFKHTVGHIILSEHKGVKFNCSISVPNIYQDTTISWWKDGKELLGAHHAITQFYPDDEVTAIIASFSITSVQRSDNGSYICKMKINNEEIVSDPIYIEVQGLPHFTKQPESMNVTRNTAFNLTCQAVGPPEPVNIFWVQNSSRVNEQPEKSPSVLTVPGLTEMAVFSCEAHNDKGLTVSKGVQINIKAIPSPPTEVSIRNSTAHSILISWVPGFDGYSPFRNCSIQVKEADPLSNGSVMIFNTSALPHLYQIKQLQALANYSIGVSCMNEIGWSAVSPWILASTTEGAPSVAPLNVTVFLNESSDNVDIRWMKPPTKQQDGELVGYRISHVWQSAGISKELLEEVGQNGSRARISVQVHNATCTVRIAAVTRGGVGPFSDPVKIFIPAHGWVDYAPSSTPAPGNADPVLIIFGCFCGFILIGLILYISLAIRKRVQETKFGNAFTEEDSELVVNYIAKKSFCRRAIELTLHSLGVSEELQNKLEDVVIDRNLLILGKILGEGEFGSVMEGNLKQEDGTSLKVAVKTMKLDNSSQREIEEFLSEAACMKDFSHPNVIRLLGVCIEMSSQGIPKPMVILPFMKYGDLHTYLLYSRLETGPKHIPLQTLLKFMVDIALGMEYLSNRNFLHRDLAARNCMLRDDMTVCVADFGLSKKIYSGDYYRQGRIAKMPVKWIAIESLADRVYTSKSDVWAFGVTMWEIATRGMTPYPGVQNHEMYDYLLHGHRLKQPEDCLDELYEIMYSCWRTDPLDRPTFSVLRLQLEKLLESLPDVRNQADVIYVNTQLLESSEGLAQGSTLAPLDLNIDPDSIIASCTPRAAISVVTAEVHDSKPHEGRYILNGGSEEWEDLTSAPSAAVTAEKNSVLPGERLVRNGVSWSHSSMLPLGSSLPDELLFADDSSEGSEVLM

c-Abl (mouse) = assay: as above
c-Src = assay: as above
Grb2 SH2 = Grb2 SH2 (UniProt P62993); assay: SH2 binding enrichment of the phosphorylated peptide, bacterial display (enrichment ratio); higher = better substrate or ligand; peptides without Tyr show the background
SHP2-C SH2 = assay: as above
c-Src SH2 = assay: as above
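For SH2 binding enrichment of the phosphorylated peptide, bacterial display in this document: peptide library displayed on the E. coli surface as eCPX fusions, selected cells deep-sequenced, score is each peptide's frequency after selection divided by its frequency in the input.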
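For phosphorylation enrichment, bacterial display in this document: 11-residue human phosphosite peptides and single-mutation variants displayed on the E. coli surface, counted by deep sequencing, each peptide's frequency after selection divided by its frequency in the unselected input library; frequency after pTyr selection over input frequency; kinase dosed for 20-30% of maximal phosphorylation in three min.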

Chain of EPHB1 (P54762 whole entry, looked up): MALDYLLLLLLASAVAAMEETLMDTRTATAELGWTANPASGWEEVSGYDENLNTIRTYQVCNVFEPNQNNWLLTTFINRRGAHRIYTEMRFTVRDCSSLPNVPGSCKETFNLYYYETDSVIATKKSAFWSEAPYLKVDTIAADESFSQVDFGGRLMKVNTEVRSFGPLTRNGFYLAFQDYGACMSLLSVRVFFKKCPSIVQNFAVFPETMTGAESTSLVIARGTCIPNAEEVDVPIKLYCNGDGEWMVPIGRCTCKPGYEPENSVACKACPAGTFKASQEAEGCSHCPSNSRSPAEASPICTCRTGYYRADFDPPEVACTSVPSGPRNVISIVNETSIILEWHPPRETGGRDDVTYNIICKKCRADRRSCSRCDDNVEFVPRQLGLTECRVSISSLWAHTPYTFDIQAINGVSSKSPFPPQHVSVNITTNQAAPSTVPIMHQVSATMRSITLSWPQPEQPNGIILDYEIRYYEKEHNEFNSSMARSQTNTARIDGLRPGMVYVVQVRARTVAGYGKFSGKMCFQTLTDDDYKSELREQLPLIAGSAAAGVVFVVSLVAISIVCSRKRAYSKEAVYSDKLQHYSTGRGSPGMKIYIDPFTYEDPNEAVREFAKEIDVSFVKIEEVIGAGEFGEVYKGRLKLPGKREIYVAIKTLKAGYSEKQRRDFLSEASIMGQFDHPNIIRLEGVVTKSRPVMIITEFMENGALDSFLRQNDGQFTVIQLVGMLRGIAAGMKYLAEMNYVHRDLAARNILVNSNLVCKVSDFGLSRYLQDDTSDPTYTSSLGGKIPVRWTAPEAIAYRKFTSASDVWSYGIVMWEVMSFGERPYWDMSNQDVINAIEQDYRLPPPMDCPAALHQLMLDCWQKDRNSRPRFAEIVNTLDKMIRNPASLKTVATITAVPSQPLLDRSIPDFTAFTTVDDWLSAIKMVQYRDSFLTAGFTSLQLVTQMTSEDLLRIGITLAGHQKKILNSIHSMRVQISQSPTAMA
Chain of EPHB2 (P29323 whole entry, looked up): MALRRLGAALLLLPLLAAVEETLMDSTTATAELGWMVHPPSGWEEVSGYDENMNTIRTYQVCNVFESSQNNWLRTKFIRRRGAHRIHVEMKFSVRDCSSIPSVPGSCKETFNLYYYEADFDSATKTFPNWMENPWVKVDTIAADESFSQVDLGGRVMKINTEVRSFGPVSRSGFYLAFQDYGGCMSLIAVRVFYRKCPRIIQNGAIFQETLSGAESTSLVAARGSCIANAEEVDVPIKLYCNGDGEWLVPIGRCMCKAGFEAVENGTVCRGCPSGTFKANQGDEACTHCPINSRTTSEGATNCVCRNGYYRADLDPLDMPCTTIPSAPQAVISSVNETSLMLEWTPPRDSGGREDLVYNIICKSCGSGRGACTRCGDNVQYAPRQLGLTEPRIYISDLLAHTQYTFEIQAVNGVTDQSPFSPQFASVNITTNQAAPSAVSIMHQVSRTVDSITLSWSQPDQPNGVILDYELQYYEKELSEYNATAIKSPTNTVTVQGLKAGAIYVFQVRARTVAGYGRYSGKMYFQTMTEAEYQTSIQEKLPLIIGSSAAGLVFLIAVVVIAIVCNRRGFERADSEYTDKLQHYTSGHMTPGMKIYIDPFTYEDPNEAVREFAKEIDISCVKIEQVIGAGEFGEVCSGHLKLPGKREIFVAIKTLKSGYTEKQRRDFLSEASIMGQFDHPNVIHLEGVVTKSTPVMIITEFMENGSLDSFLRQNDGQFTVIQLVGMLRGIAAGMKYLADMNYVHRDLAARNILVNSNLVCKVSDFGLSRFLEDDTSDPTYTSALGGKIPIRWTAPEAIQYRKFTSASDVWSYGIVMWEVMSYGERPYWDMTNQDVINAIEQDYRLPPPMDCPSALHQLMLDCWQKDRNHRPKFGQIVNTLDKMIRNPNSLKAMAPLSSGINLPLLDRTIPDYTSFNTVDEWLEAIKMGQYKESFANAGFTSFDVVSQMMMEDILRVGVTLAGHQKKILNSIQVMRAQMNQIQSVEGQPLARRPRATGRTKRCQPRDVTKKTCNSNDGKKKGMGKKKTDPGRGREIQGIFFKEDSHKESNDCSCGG

Sequence	phosphorylation enrichment (AncSZ)	phosphorylation enrichment (EPHB1)	phosphorylation enrichment (EPHB2)	phosphorylation enrichment (FGFR1)	phosphorylation enrichment (FGFR3)	phosphorylation enrichment (Fer (mouse))	phosphorylation enrichment (Fes)	phosphorylation enrichment (Fyn)	phosphorylation enrichment (Hck)	phosphorylation enrichment (Jak2)	phosphorylation enrichment (MERTK)	phosphorylation enrichment (c-Abl (mouse))	phosphorylation enrichment (c-Src)	SH2 binding enrichment (Grb2 SH2)	SH2 binding enrichment (SHP2-C SH2)	SH2 binding enrichment (c-Src SH2)
LPKVSCVKAID [GLRA1_Y307_Y307C]	1.19	0.794	0.711	0.734	1.14	0.577	1.38	0.655	0.695	0.945	0.501	0.803	0.386	0.713	0.35	0.697
FLAATYPTLGQ [NF1_Y2508_V2511L_YF]	0.572	0.723	0.4	0.424	0.572	0.4	0.674	0.422	0.389	0.523	0.356	0.549	0.404	0.866	0.814	0.572
IYHLSYHHNCE [PDE6B_Y227_L228H]	1.29	0.703	0.602	1.32	1.17	0.671	1.34	2.15	1.51	1.03	3.55	2.09	2.29	1.09	1.19	0.833
VCHELYNTIRD [PBRM1_Y54]	0.898	0.546	0.608	0.489	0.683	0.683	0.975	0.718	3.01	0.761	0.448	0.978	1.38	0.766	0.805	3.75
CEDGNYSPEIS [PTDSS1_Y424_T423N]	1.18	0.612	0.871	0.643	0.637	0.461	1.06	0.458	0.668	0.975	0.486	0.785	0.618	1.01	0.761	0.747
STLEVYSCHPP [IL21R_Y317]	1.33	1.04	1.34	0.698	1.04	0.904	1.56	1.25	1.27	1.38	0.774	1.31	1.65	0.71	0.559	0.451
FQEKGYNKELR [CHRND_Y38]	0.675	0.45	0.268	0.471	0.519	0.376	0.74	0.335	0.351	0.57	0.382	0.45	0.378	0.814	0.882	0.485
GFPVHYTDVSN [DNMT3B_Y815]	0.661	0.477	0.485	0.439	0.686	0.708	0.653	0.43	0.433	0.51	0.526	0.5	0.398	0.793	7.67	3.96
SPYAVYRFFTF [RPGRIP1_Y826]	1.08	0.714	0.555	0.784	0.783	0.875	1.33	1.79	1.21	1.12	0.797	1.67	2.4	0.728	0.574	0.447
SGFESYGSSSF [RPA2_Y9_YF]	0.591	0.433	0.432	0.443	0.539	0.389	0.601	0.448	0.481	0.436	0.348	0.436	0.368	0.761	0.574	0.404
TLNFCYQQVKS [PTK2_Y148_F147C]	1.25	0.718	0.709	0.617	0.884	0.501	1.28	0.44	0.52	1.07	0.399	0.936	0.524	0.898	0.896	0.786
YFWDGYMPRQY [GSS_Y270_R267W]	1.01	0.68	0.521	10.8	9.39	0.576	1.18	0.547	0.783	5.42	3.96	0.565	0.772	1.11	1.1	1.07
EKFVPYYDLFM [IPO5_Y530]	1.2	4.82	6.87	6.89	5.89	3.71	1.18	3.05	3.27	1.47	7.26	0.787	4.22	1.72	1.46	3.84
QLYGAYLRIHA [BSCL2_Y213]	1.95	1	1.3	1.02	1.12	0.536	1.68	7.21	4.32	1.2	0.905	0.915	3.58	1.27	1.35	1.13
